Results taken from the RNAGym collection of RNA variant scans (doi:10.7554/elife.90254).

B1: LINE1-mini (parent)
chain: GGCAGAGCUCAACACAGCGUGGCAAAGUGGCUGUGGCUAGACUGCC

Variants of: B1
Assay: self-cleavage, relative activity (ratio to wild type); higher = more cleavage; in vitro, sequencing; the parent is a self-cleaving ribozyme
GGCAGAGCUCAACACAGCGUGGAAAAGUGCCUGUGGCUAGACUGCC [C23A G30C] showed a self-cleavage of 2.68.
With GGCAGAGCUCAACACAGCGUGGGAAAGUGGCUGUGGCUAGACAGCC [C23G U43A] the self-cleavage was 0.08.
With GGCAGAGCUCAACACAGCGUGGGAAAGUGGCUGUGGCUAGACCGCC [C23G U43C] the self-cleavage was 0.24.
Work on GGCAGAGCUCAACACAGCGUGGUAAAGUGGCUGUGGCUAGACUGCC [C23U] yielded a self-cleavage of 1.03.
In the case of GGCAGAGCUCAACACAGCGUGGGAAAGUGGCUGUGGCUAGACUGCC [C23G], the self-cleavage is reported as 0.84.
In the case of GGCAGAGCUCAACACAGCGUGGAAAAGUGGCUGUGACUAGACUGCC [C23A G36A], the self-cleavage is reported as 0.17.
Variant GGCAGAGCUCAACACAGCGUGGAAAAGUGGCUGUGCCUAGACUGCC [C23A G36C] has a self-cleavage of 0.07.
For GGCAGAGCUCAACACAGCGUGGAAAAGUGGCUGUGUCUAGACUGCC [C23A G36U], the self-cleavage was 0.06.
For GGCAGAGCUCAACACAGCGUGGGCAAGUGGCUGUGGCUAGACUGCC [C23G A24C], the self-cleavage was 0.41.
With GGCAGAGCUCAACACAGCGUGGGUAAGUGGCUGUGGCUAGACUGCC [C23G A24U] the self-cleavage was 0.75.
In the case of GGCAGAGCUCAACACAGCGUGGGGAAGUGGCUGUGGCUAGACUGCC [C23G A24G], the self-cleavage is reported as 0.88.
For GGCAGAGCUCAACACAGCGUGGAAAAGUGGCUGUGGCUAGACGGCC [C23A U43G], the self-cleavage was 0.02.
For GGCAGAGCUCAACACAGCGUGGAAAAGUGGCUGUGGCUAGACCGCC [C23A U43C], the self-cleavage was 0.08.
Variant GGCAGAGCUCAACACAGCGUGGAAAAGUGGCUGUGGCUAGACAGCC [C23A U43A] has a self-cleavage of 0.1.
Work on GGCAGAGCUCAACACAGCGUGGGAAAGUGGCUGUGGAUAGACUGCC [C23G C37A] yielded a self-cleavage of 0.04.
GGCAGAGCUCAACACAGCGUGGGAAAGUGGCUGUGGUUAGACUGCC [C23G C37U] showed a self-cleavage of 0.02.
Work on GGCAGAGCUCAACACAGCGUGGGAAAGUGGCUGUGGGUAGACUGCC [C23G C37G] yielded a self-cleavage of 0.01.
In the case of GGCAGAGCUCAACACAGCGUGGUAUAGUGGCUGUGGCUAGACUGCC [C23U A25U], the self-cleavage is reported as 0.93.
With GGCAGAGCUCAACACAGCGUGGUAGAGUGGCUGUGGCUAGACUGCC [C23U A25G] the self-cleavage was 1.17.
In the case of GGCAGAGCUCAACACAGCGUGGUACAGUGGCUGUGGCUAGACUGCC [C23U A25C], the self-cleavage is reported as 0.86.
GGCAGAGCUCAACACAGCGUGGUCAAGUGGCUGUGGCUAGACUGCC [C23U A24C] gave a self-cleavage of 0.71.
GGCAGAGCUCAACACAGCGUGGUUAAGUGGCUGUGGCUAGACUGCC [C23U A24U] showed a self-cleavage of 0.84.
GGCAGAGCUCAACACAGCGUGGUGAAGUGGCUGUGGCUAGACUGCC [C23U A24G] showed a self-cleavage of 0.88.
In the case of GGCAGAGCUCAACACAGCGUGGGAAAGAGGCUGUGGCUAGACUGCC [C23G U28A], the self-cleavage is reported as 0.7.
GGCAGAGCUCAACACAGCGUGGGAAAGGGGCUGUGGCUAGACUGCC [C23G U28G] gave a self-cleavage of 0.89.
GGCAGAGCUCAACACAGCGUGGGAAAGCGGCUGUGGCUAGACUGCC [C23G U28C] showed a self-cleavage of 0.66.
GGCAGAGCUCAACACAGCGUGGAAAAGUGGCUGAGGCUAGACUGCC [C23A U34A] showed a self-cleavage of 0.24.
GGCAGAGCUCAACACAGCGUGGAAAAGUGGCUGGGGCUAGACUGCC [C23A U34G] gave a self-cleavage of 0.22.
With GGCAGAGCUCAACACAGCGUGGAAAAGUGGCUGCGGCUAGACUGCC [C23A U34C] the self-cleavage was 0.78.
In the case of GGCAGAGCUCAACACAGCGUGGGAAUGUGGCUGUGGCUAGACUGCC [C23G A26U], the self-cleavage is reported as 1.62.
Work on GGCAGAGCUCAACACAGCGUGGGAAGGUGGCUGUGGCUAGACUGCC [C23G A26G] yielded a self-cleavage of 0.76.
For GGCAGAGCUCAACACAGCGUGGGAACGUGGCUGUGGCUAGACUGCC [C23G A26C], the self-cleavage was 0.88.
In the case of GGCAGAGCUCAACACAGCGUGGGAAAGUGGCUGUGGCUUGACUGCC [C23G A39U], the self-cleavage is reported as 0.69.
Work on GGCAGAGCUCAACACAGCGUGGGAAAGUGGCUGUGGCUCGACUGCC [C23G A39C] yielded a self-cleavage of 0.07.
With GGCAGAGCUCAACACAGCGUGGGAAAGUGGCUGUGGCUGGACUGCC [C23G A39G] the self-cleavage was 0.09.
With GGCAGAGCUCAACACAGCGUGGAAAAGUGGCCGUGGCUAGACUGCC [C23A U32C] the self-cleavage was 0.47.
GGCAGAGCUCAACACAGCGUGGAAAAGUGGCAGUGGCUAGACUGCC [C23A U32A] showed a self-cleavage of 0.11.
Work on GGCAGAGCUCAACACAGCGUGGAAAAGUGGCGGUGGCUAGACUGCC [C23A U32G] yielded a self-cleavage of 0.22.
For GGCAGAGCUCAACACAGCGUGGGAAAGUGGCUGUGGCUAGAGUGCC [C23G C42G], the self-cleavage was 0.03.
GGCAGAGCUCAACACAGCGUGGGAAAGUGGCUGUGGCUAGAAUGCC [C23G C42A] gave a self-cleavage of 0.19.
In the case of GGCAGAGCUCAACACAGCGUGGGAAAGUGGCUGUGGCUAGAUUGCC [C23G C42U], the self-cleavage is reported as 0.47.
Work on GGCAGAGCUCAACACAGCGUGGGAAAGUGGCUGGGGCUAGACUGCC [C23G U34G] yielded a self-cleavage of 0.23.
GGCAGAGCUCAACACAGCGUGGGAAAGUGGCUGCGGCUAGACUGCC [C23G U34C] gave a self-cleavage of 0.32.
In the case of GGCAGAGCUCAACACAGCGUGGGAAAGUGGCUGAGGCUAGACUGCC [C23G U34A], the self-cleavage is reported as 0.09.
GGCAGAGCUCAACACAGCGUGGAAAAGCGGCUGUGGCUAGACUGCC [C23A U28C] gave a self-cleavage of 0.88.
For GGCAGAGCUCAACACAGCGUGGAAAAGGGGCUGUGGCUAGACUGCC [C23A U28G], the self-cleavage was 0.44.
With GGCAGAGCUCAACACAGCGUGGAAAAGAGGCUGUGGCUAGACUGCC [C23A U28A] the self-cleavage was 0.78.
GGCAGAGCUCAACACAGCGUGGAAAAGUGGCUGUGGCGAGACUGCC [C23A U38G] gave a self-cleavage of 0.02.
For GGCAGAGCUCAACACAGCGUGGAAAAGUGGCUGUGGCAAGACUGCC [C23A U38A], the self-cleavage was 0.28.
For GGCAGAGCUCAACACAGCGUGGAAAAGUGGCUGUGGCCAGACUGCC [C23A U38C], the self-cleavage was 0.52.
GGCAGAGCUCAACACAGCGUGGGAAAGUGGCUGUGACUAGACUGCC [C23G G36A] gave a self-cleavage of 0.14.
GGCAGAGCUCAACACAGCGUGGGAAAGUGGCUGUGUCUAGACUGCC [C23G G36U] showed a self-cleavage of 0.07.
GGCAGAGCUCAACACAGCGUGGGAAAGUGGCUGUGCCUAGACUGCC [C23G G36C] gave a self-cleavage of 0.11.
With GGCAGAGCUCAACACAGCGUGGGAAAGUGGCCGUGGCUAGACUGCC [C23G U32C] the self-cleavage was 0.28.
Work on GGCAGAGCUCAACACAGCGUGGGAAAGUGGCAGUGGCUAGACUGCC [C23G U32A] yielded a self-cleavage of 0.07.
Variant GGCAGAGCUCAACACAGCGUGGGAAAGUGGCGGUGGCUAGACUGCC [C23G U32G] has a self-cleavage of 0.21.
